± gives the uncertainty stated by the source.
B1: Serine/threonine-protein kinase A-Raf, residues 21 to 89; numbered along this chain, P10398 (parent)
chain: VKVYLPNKQRTVVTVRDGMSVYDSLDKALKVRGLNQDCCVVYRLIKGRKTVTAWDTAIAPLDGEELIVE

Variants of: B1
Test: abundance fitness (aPCA) (normalised: wild type 0, dead -1); higher = more abundant; growth selection in yeast, the domain comes from the species named
Settings: Homo sapiens

Abundance fitness, by site and new letter:
L5: T -0.916 ± 0.13; S -0.818 ± 0.1; R -1.1 ± 0.12; C -0.784 ± 0.14; M -0.064 ± 0.058; K -0.99 ± 0.16; A -0.772 ± 0.15; E -0.844 ± 0.21; F 0.102 ± 0.097; V -0.896 ± 0.12; P -0.778 ± 0.18; Q -0.87 ± 0.21; W 0.113 ± 0.062
V12: P -0.748 ± 0.26; F -0.254 ± 0.19; C -0.304 ± 0.099; L -0.189 ± 0.041; H -0.115 ± 0.14; N -0.325 ± 0.17; W -0.067 ± 0.048; I -0.117 ± 0.36; M -0.264 ± 0.047; K -0.111 ± 0.055; G -0.983 ± 0.14; Q -0.18 ± 0.069; R -0.096 ± 0.04; D -0.341 ± 0.18; T -0.096 ± 0.065; Y 0.019 ± 0.086; E -0.066 ± 0.033; A -0.503 ± 0.077
V21: C -0.707 ± 0.22; I -0.602 ± 0.43; G -1.04 ± 0.18; T -0.964 ± 0.24; Q -0.834 ± 0.25; H -0.996 ± 0.3; P -0.99 ± 0.23; K -0.493 ± 0.25; A -0.273 ± 0.08; F -0.392 ± 0.12; Y -0.033 ± 0.31; L 0.093 ± 0.049; W -0.602 ± 0.092; E -0.65 ± 0.16; M -0.207 ± 0.09; R -0.864 ± 0.15; S -0.858 ± 0.2
V1: G -0.744 ± 0.17; S -0.528 ± 0.25; R -0.487 ± 0.48; M -0.141 ± 0.1; I -0.096 ± 0.18; L -0.076 ± 0.13
M19: I -0.413 ± 0.11; D -0.09 ± 0.14; G -0.216 ± 0.064; W -0.053 ± 0.05; E -0.013 ± 0.078; P -0.778 ± 0.1; Q 0.011 ± 0.08; R -0.218 ± 0.032; H -0.491 ± 0.4; T -0.034 ± 0.071; L -0.154 ± 0.049; Y -0.352 ± 0.18; C -0.091 ± 0.11; F -0.274 ± 0.1; A -0.17 ± 0.062; K -0.223 ± 0.1; V -0.057 ± 0.057
Q9: P -0.876 ± 0.15; H -0.559 ± 0.28; D 0.028 ± 0.094; L -0.455 ± 0.063; C -0.479 ± 0.12; Y -0.458 ± 0.3; M -0.149 ± 0.082; K -0.042 ± 0.095; I -0.162 ± 0.094; S -0.11 ± 0.059; G -0.297 ± 0.053; R -0.211 ± 0.043; A -0.198 ± 0.047; N -0.332 ± 0.17; W -0.448 ± 0.064; E -0.008 ± 0.064; V -0.035 ± 0.046; T -0.209 ± 0.069
G18: P -0.659 ± 0.099; Q -0.305 ± 0.11; W -0.636 ± 0.11; D -0.143 ± 0.2; M -0.89 ± 0.15; F -0.651 ± 0.073; Y -0.638 ± 0.2; V -0.663 ± 0.064; T -0.405 ± 0.064; E -0.25 ± 0.12; I -0.882 ± 0.23; S -0.239 ± 0.053; A -0.513 ± 0.056; R -0.373 ± 0.035; K -0.08 ± 0.08; H -0.244 ± 0.13; C -0.261 ± 0.084
R16: E -0.037 ± 0.062; N -0.147 ± 0.097; S -0.048 ± 0.042; A -0.027 ± 0.045; H 0.191 ± 0.081; Y 0 ± 0.087; V -0.133 ± 0.044; K -0.045 ± 0.052; L -0.072 ± 0.042; T -0.086 ± 0.063; C -0.028 ± 0.1; D -0.106 ± 0.097; P -0.117 ± 0.063; F -0.169 ± 0.079; M -0.181 ± 0.082; I -0.073 ± 0.1; G -0.108 ± 0.037
T11: S -0.582 ± 0.066; E -0.108 ± 0.072; Y -0.351 ± 0.1; V 0.038 ± 0.049; G -0.919 ± 0.12; C -0.064 ± 0.12; W -0.652 ± 0.09; R -0.652 ± 0.063; L 0.052 ± 0.047; Q -0.1 ± 0.057; P -0.979 ± 0.19; K -0.371 ± 0.079; F -0.08 ± 0.073; D -0.233 ± 0.13; M -0.002 ± 0.059; I -0.072 ± 0.1
V3: R -0.808 ± 0.089; M -0.814 ± 0.18; E -0.745 ± 0.12; G -0.966 ± 0.18; L -0.191 ± 0.037; D -0.794 ± 0.2; P -1.01 ± 0.13; T -0.985 ± 0.15; I -0.298 ± 0.16; C -0.274 ± 0.12; Q -1.02 ± 0.23; A -0.672 ± 0.086; F -0.552 ± 0.092; K -0.622 ± 0.11; W -0.877 ± 0.1; S -0.856 ± 0.09; Y -0.016 ± 0.14
V13: P -0.772 ± 0.15; F -0.795 ± 0.2; R -0.78 ± 0.078; D -0.714 ± 0.23; W -0.856 ± 0.095; T -0.864 ± 0.25; I 0.039 ± 0.064; M -0.892 ± 0.19; S -1 ± 0.17; L -0.202 ± 0.048; K -0.955 ± 0.37

Reference: the Human Domainome abundance scans (Beltran et al. 2025)
